US9206432B2, “Sulfonylurea-responsive repressor proteins” (priority 2008, dated 2015)
Like-named read-outs stand apart in the source and are kept apart here.

Tested on: lacZ under control of the tetA promoter (PtetA) in E. coli KM3
Assay type: cell-based
Settings: for relative β-galactosidase activity, inducer Ci: chlorimuron 20 ppm; for relative β-galactosidase activity, inducer Cs: chlorsulfuron 20 ppm; for relative β-galactosidase activity, inducer Ms: metsulfuron 20 ppm; for relative β-galactosidase activity, inducer Ns: nicosulfuron 20 ppm; for relative β-galactosidase activity, inducer Rs: rimsulfuron 20 ppm; for relative β-galactosidase activity, inducer Sm: sulfometuron 20 ppm; for relative β-galactosidase activity, inducer Ts: thifensulfuron 20 ppm; for relative β-galactosidase activity, inducer Tb: tribenuron 20 ppm; for inducer preference: Table 8, library L2 parents and hits; for activity on sulfonylurea inducers: first round hits, 20 ppm inducer (Table 4)
[1] = Table 4, ethametsulfuron 20 ppm, 48 hrs at 30° C.

Row | Molecule | relative β-galactosidase activity, inducer Ci (Table 4, 48 hrs at 30° C.) | relative β-galactosidase activity, inducer Cs (Table 4, 48 hrs at 30° C.) | relative β-galactosidase activity, inducer Es [1] | relative β-galactosidase activity, inducer Ms (Table 4, 48 hrs at 30° C.) | relative β-galactosidase activity, inducer Ns (Table 4, 48 hrs at 30° C.) | relative β-galactosidase activity, inducer Rs (Table 4, 48 hrs at 30° C.) | relative β-galactosidase activity, inducer Sm (Table 4, 48 hrs at 30° C.) | relative β-galactosidase activity, inducer Ts (Table 4, 48 hrs at 30° C.) | relative β-galactosidase activity, inducer Tb (Table 4, 48 hrs at 30° C.) | inducer preference | relative β-galactosidase activity, No inducer (Table 10, 48 hours at 30° C.) | activity on sulfonylurea inducers | relative β-galactosidase activity, inducer Es (Table 10, ethametsulfuron 2 ppm, 48 hours at 30° C.) | induction response and background (library L2 retest, inducers at 2 ppm)
1 | L1-29: SU-responsive TetR(B) variant, library L1 hit, SEQ ID NO: 10 (protein, Sulfonylurea responsive repressor L1-29) MGSRLDKSKVINSALELLNEVGIEGLTTRKLAQKLGVEQPTLYWHVKNKRALLDALAIEMMDRHQTHFCPLEGESWQDFLRNTAKSMRCALLSHRDGAKVWLGTRWTEKQYETPENMLAFLCQQGFSLENALYAWSAVCNFTLGCVLSDQERQVAKEERETPTTDSMPPLLRQAWELSDHQGAEPAFLFGLELIICGLEKQLKCESGS | 20.9 | 15.8 | 1.7 | 13.5 | 0.1 | 0.1 | 2.7 | 0.0 | 0.3 | 9 (weak) | 0.1 | moderate metsulfuron activity | – | –
2 | L1-44: SU-responsive TetR(B) variant, library L1 hit, SEQ ID NO: 13 (protein, Sulfonylurea responsive repressor L1-44) MGSRLDKSKVINSALELLNEVGIEGLTTRKLAQKLGVEQPTLYWHVKNKRALLDALAIEMLDRHATHFCPLEGESWQDFLRNNAKSYRCALLSHRDGAKVYLGTAVTEKQYETAENQLAFLCQQGFSLENALYAVKAVAGFTLGCVLWDQESQVAKEERETPTTASMPPLLRQAVELADHQGAEPAFLFGLELIICGLEKQLKCESGS | 6.7 | 12.0 | 2.4 | 2.9 | 0.4 | 0.3 | 0.4 | 1.9 | 0.4 | 9 (weak) | 0.6 | moderate activity on metsulfuron, ethametsulfuron and chlorsulfuron | – | –
3 | L1-31: SU-responsive TetR(B) variant, library L1 hit (protein, Sulfonylurea responsive repressor L1-31) MGSRLDKSKVINSALELLNEVGIEGLTTRKLAQKLGVEQPTLYWHVKNKRALLDALAIEMLDRHATHFCPLEGESWQDFLRNNAKSMRCALLSHRDGAKVMLGTRATEKQYETVENRLAFLCQQGFSLENALYAVRAVHWFTLGCVLIDQEMQVAKEERETPTTDSMPPLLRQAYELYDHQGAEPAFLFGLELIICGLEKQLKCESGS | 1.1 | 1.4 | 13.7 | 0.5 | 0.5 | 0.4 | 0.9 | 0.9 | 0.1 | – | – | – | – | –
4 | L1-28: SU-responsive TetR(B) variant, library L1 hit (protein, Sulfonylurea responsive repressor L1-28) MGSRLDKSKVINSALELLNEVGIEGLTTRKLAQKLGVEQPTLYWHVKNKRALLDALAIEMLDRHATHFCPLEGESWQDFLRNNAKSMRCALLSHRDGAKVWLGTAWTEKQYETPENVLAFLCQQGFSLENALYASRAVVTFTLGCVLTDQEKQVAKEERETPTTDSMPPLLRQAWELLDHQGAEPAFLFGLELIICGLEKQLKCESGS | 14.6 | 5.8 | 0.8 | 18.8 | 0.1 | 0.2 | 1.1 | 0.1 | 0.3 | – | – | – | – | –
5 | L1-9: SU-responsive TetR(B) variant, library L1 hit (protein, Sulfonylurea responsive repressor L1-09) MGSRLDKSKVINSALELLNEVGIEGLTTRKLAQKLGVEQPTLYWHVKNKRALLDALAIEMLDRHATHFCPLEGESWQDFLRNNAKSMRCALLSHRDGAKVCLGTGFTEKQYETAENSLAFLCQQGFSLENALYAMQAVCIFTLGCVLLDQELQVAKEERETPTTDSMPPLLRQALELKDHQGAEPAFLFGLELIICGLEKQLKCESGS | 9.8 | 23.6 | 11.8 | 1.2 | 0.3 | 0.4 | 0.6 | 1.1 | 0.4 | 4, 9 (weak) | 0.9 | strong activity on both ethametsulfuron and chlorsulfuron | 14.8 | sensitivity to 2 ppm Es
6 | L1-38: SU-responsive TetR(B) variant, library L1 hit (protein, Sulfonylurea responsive repressor L1-38) MGSRLDKSKVINSALELLNEVGIEGLTTRKLAQKLGVEQPTLYWHVKNKRALLDALAIEMADRHHTHFCPLEGESWQDFLRNNAKSMRCALLSHRDGAKVWLGTAWTEKQYETTENMLAFLCQQGFSLENALYAWRAVTMFTLGCVLRDQEWQVAKEERETPTTDSMPPLLRQALELGDHQGAEPAFLFGLELIICGLEKQLKCESGS | 15.3 | 14.0 | 14.8 | 14.7 | 8.7 | 9.5 | 18.3 | 16.7 | 15.8 | – | – | – | – | –
7 | L1-24: SU-responsive TetR(B) variant, library L1 hit (protein, Sulfonylurea responsive repressor L1-24) MGSRLDKSKVINSALELLNEVGIEGLTTRKLAQKLGVEQPTLYWHVKNKRALLDALAIEMLDRHNTHFCPLEGESWQDFLRNSAKSMRCALLSHRDGAKVLLGTAVTEKQYETTENSLAFLCQQGFSLENALYAIRAVRTFTLGCVLVDQERQVAKEERETPTTDSMPPLLRQAKELLDHQGAEPAFLFGLELIICGLEKQLKCESGS | 22.1 | 3.3 | 0.2 | 0.4 | 0.3 | 0.3 | 3.1 | 0.3 | 1.6 | – | – | – | – | –
8 | L1-22: SU-responsive TetR(B) variant, library L1 hit, SEQ ID NO: 7 (protein, Sulfornylurea responsive repressor L1-22) MGSRLDKSKVINSALELLNEVGIEGLTTRKLAQKLGVEQPTLYWHVKNKRALLDALAIEMMDRHHTHFCPLEGESWQDFLRNTAKSYRCALLSHRDGAKVCLGTAITEKQYETKENNLAFLCQQGFSLENALYARQAVRVFTLGCVLFDQEMQVAKEERETPTTDSMPPLLRQASELLDHQGAEPAFLFGLELIICGLEKQLKSESGS | 10.4 | 0.2 | 0.3 | 0.1 | 0.2 | 0.1 | 17.2 | 0.0 | 0.3 | 3 | 0.2 | strong sulfometuron activity | – | –
